Results as given in paper PMC9855186, “Photoautotrophic Growth Rate Enhancement of Synechocystis sp. PCC6803 by Heterologous Production of 2-Oxoglutarate:Ferredoxin Oxidoreductase from Chlorobaculum tepidum” (Biology, 2022).

Experiments:
[1] = substrate: O=C(O)CCC(=O)C(=O)O; assay: NADPH decrease at A340, Michaelis-Menten fit; format: biochemical, Synechocystis sp. PCC 6803; conditions: carboxylation, 50 mM sodium bicarbonate fixed, 0.15 mM NADPH, 10 mM HEPES pH 8.0, 40 mM MgCl2
[2] = substrate: O=C(O)C[C@H](C(=O)O)[C@@H](O)C(=O)O; assay: NADP+ reduction at A340, Michaelis-Menten fit; format: biochemical, Synechocystis sp. PCC 6803; conditions: decarboxylation, 0.15 mM NADP+, 10 mM HEPES pH 8.0, 40 mM MgCl2
[3] = substrate: CC(C)(COP(=O)(O)OP(=O)(O)OC[C@H]1O[C@@H](n2cnc3c(N)ncnc32)[C@H](O)[C@@H]1OP(=O)(O)O)[C@@H](O)C(=O)NCCC(=O)NCCS; assay: coupled Fd/FNR assay, NADP+ reduction at A340, Michaelis-Menten fit; format: biochemical, Chlorobaculum tepidum; conditions: decarboxylation, 5 mM 2-oxoglutarate fixed, 0.15 mM NADP+, 0.1 μM FNR, 1 μM Synechocystis Fd (slr1382), 1 mM MgCl2, 1 mM DTT, 1 mM TPP, pH 7.5, 30 °C, anaerobic, kcat per αβ-protomer
Source text: (§1) coupled Fd/FNR assay, NADP+ reduction at A340, Michaelis-Menten fit on CtOGOR (2-oxoglutarate:ferredoxin oxidoreductase)

[4] = substrate: O=C(O)CCC(=O)C(=O)O; assay: as above; format: biochemical, Chlorobaculum tepidum; conditions: decarboxylation, 0.5 mM CoA fixed, 0.15 mM NADP+, 0.1 μM FNR, 1 μM Synechocystis Fd (slr1382), 1 mM MgCl2, 1 mM DTT, 1 mM TPP, pH 7.5, 30 °C, anaerobic, kcat per αβ-protomer
Source text: as §1

[5] = substrate: CC(C)(COP(=O)(O)OP(=O)(O)OC[C@H]1O[C@@H](n2cnc3c(N)ncnc32)[C@H](O)[C@@H]1OP(=O)(O)O)[C@@H](O)C(=O)NCCC(=O)NCCSC(=O)CCC(=O)O; assay: coupled Fd/FNR assay, NADPH decrease at A340, Michaelis-Menten fit; format: biochemical, Chlorobaculum tepidum; conditions: carboxylation, 50 mM sodium bicarbonate fixed, 0.15 mM NADPH, 0.1 μM FNR, 1 μM Synechocystis Fd (slr1382), 1 mM MgCl2, 1 mM DTT, 1 mM TPP, pH 7.5, 30 °C, anaerobic, kcat per αβ-protomer
Source text: coupled Fd/FNR assay, NADPH decrease at A340, Michaelis-Menten fit on CtOGOR (2-oxoglutarate:ferredoxin oxidoreductase)

Protein | Km [1] [µM] | Km [2] [µM] | Km [3] [µM] | kcat [3] [s⁻¹] | kcat/Km [3] [M⁻¹ s⁻¹] | Km [4] [µM] | kcat [4] [s⁻¹] | kcat/Km [4] [M⁻¹ s⁻¹] | Km [5] [µM] | kcat [5] [s⁻¹] | kcat/Km [5] [M⁻¹ s⁻¹]
Icd (isocitrate dehydrogenase) (Synechocystis sp. PCC 6803 substr. Kazusa) (protein) MYEKLQPPSVGSKITFVAGKPVVPNDPIIPYIRGDGTGVDIWPATELVINAAIAKAYGGREEINWFKVYAGDEACELYGTYQIFPEDTLTAIKEYGVAIKGPLTTPVGGGIRSLNVALRQIFDLYTCVRPCRYYPGTPSPHKTPEKLDIIVYRENTEDIYLGIEWAEGTEGAKKLIAYLNDELIPTTPALGKKQIRLDSGIGIKPISKTGSQRLVRRAILHAKRLPKAKQMVTLVHKGNIMKFTEGPFRDWGYELATTEFRAECVTERESWICGNKESNPDLTIEANAHMIDPGYDTLTEEKQAVIKQEVEQVLNSIWESHGNGQWKEKVMVNDRIADSIFQQIQTRPDEYSILATMNLNGDYLSDAAAAVVGGLGMGPGANIGDSAAIFEATHGTAPKHAGLDRINPGSVILSGVMMLEFMGWQEAADLIKKGIGAAIANREVTYDLARLMEPKVDKPLKCSEFAQAIVSHFDD | 1003 | 121 ± 13 |  |  |  |  |  |  |  |  | 
CtOGOR (2-oxoglutarate:ferredoxin oxidoreductase) (Chlorobaculum tepidum TLS) (protein, heterotetramer (alpha-beta)2, 220 kDa; N-terminal His6-KorA and C-terminal strep-tagged KorB, tags kept; codon-optimised genes; E. coli BL21(DE3); Fe-S clusters and TPP reconstituted) chain 1: MSDTVILNNNDMVISKTNVSVLFAGDSGDGMQLTGTQFANTVAVYGSDLNTFPNFPSEIRPPAGTVAGVSGFQLQFGTTGVYTPGAKFDVMIAMNAAALKANLKNLHHGGIIIADTDGFDAKNLNLAGYGETNNPLEDGTLTDYTVFKIPVISLTRQALADTGLSTKIIDRCKNMFVLGVLYWLYSLPLETTIEALQSKFKNKQDIAEANIKAVKAGYNFGDETEMFSQHGRFCVPPAQKKKGVYRRVTGNEASAIGLAAAAQKAGLELFLGSYPITPASEILQTLAGLKKWGVKTFQAEDEIAGILTSIGAAYGGALAATNTSGPGLALKTEGMGLAVILELPLVIINVMRGGPSTGLPTKPEQSDLLMAMYGRHGEAPMPVIAAMSPVDCFYAAYEAAKIAVEYMTPVLCLTDGYLALSSEPMLVPSPDELASITPMFSPERKADDPPYLPYKRDERCVRPWGIPGTPGLEHRIGGLEKQNETGHVSHDPENHALMTRLRAEKVAKVADIIPDLTIDNGPEKGDLLVLGWGSTYGAIKKAVEQAREGGLDVAHAHLRYINPFPKNLGAMLGNFKKVLIPENNCGQLLSLIRDKFLIEPVGFSKVQGLPFNEMEIEEKITDILKEL chain 2: MTDTHTCLTAKDFTSNQEPKWCPGCGDFMVLQQLKNAMAELCLKTEEVVVVSGIGCSSRLPYYINTYGVHGIHGRAMAMASGLKVARPDLSVWVGTGDGDALSIGGNHYIHTVRRNLDINVVLFNNEIYGLTKGQYSPTSKVGLRTVTSPTGVVDYPINTIALTLGAGGTFVARVMDRDGKLMKEIFKRAHNHKGTSIVEIYQNCPIFNDGAFRAFSDKERKDDTTLYLEQGQPLVFGANGSKGIYLDGFKPTVIDLEKSGVSKDDLWIHDENDLIKANILSRFFDDPNSTEEFLPRPFGIFYVEDRFTYEQALSAQIDKAQEKGEGTLEELLAGNSTWTIN |  |  | 42 ± 15 | 8.1 ± 0.2 | 192000 ± 2400 | 1689 ± 92 | 8.4 ± 0.1 | 5000 ± 100 | 24 ± 2 | 2.6 ± 0.1 | 110000 ± 3500
